The supplement of paper PMC9112550, “Optimization of the antimicrobial peptide Bac7 by deep mutational scanning” (BMC Biology, 2022)

What follows are sequences tested on Escherichia coli TOP10 (assay: shrunken log2 fold change of peptide-encoding DNA abundance (4.5 h post-induction vs induction); higher = less antimicrobial activity (less host growth inhibition)). Settings: time post-induction: 4.5 h; library: site-saturation at positions 5, 18, 19, 20.
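Further: peptides expressed intracellularly from a pBAD plasmid library in pooled LB shake-flask culture, induced with 0.3% L-arabinose, DNA abundance read by NGS, three biological replicates, DESeq2 with apeglm shrinkage.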

Sequence	shrunken log2 fold change
RRIRNRPPRLPRPRPRPKTNPRP	0.0551
RRIRERPPRLPRPRPRPYRNPRP	-0.166
RRIRQRPPRLPRPRPRPVHGPRP	-0.0392
RRIRSRPPRLPRPRPRPHFGPRP	-0.195
RRIRIRPPRLPRPRPRPNMPPRP	-0.611
RRIRKRPPRLPRPRPRPHNQPRP	0.0277
RRIRGRPPRLPRPRPRPIVWPRP	0.381
RRIRARPPRLPRPRPRPNAEPRP	0.679
RRIRTRPPRLPRPRPRPPKLPRP	-0.0543
RRIRSRPPRLPRPRPRPEWAPRP	0.273
RRIRPRPPRLPRPRPRPIWVPRP	0.0645
RRIRARPPRLPRPRPRPMQHPRP	0.642
RRIRWRPPRLPRPRPRPHSWPRP	0.189
RRIRHRPPRLPRPRPRPLYIPRP	-0.777
RRIRPRPPRLPRPRPRPGDAPRP	0.398
RRIRHRPPRLPRPRPRPTWFPRP	0.17
RRIRCRPPRLPRPRPRPKTAPRP	0.39
RRIRKRPPRLPRPRPRPTVAPRP	0.814
RRIRLRPPRLPRPRPRPGPFPRP	0.137
RRIRTRPPRLPRPRPRPEVMPRP	0.114
RRIRMRPPRLPRPRPRPQMGPRP	0.0997
RRIRMRPPRLPRPRPRPTDKPRP	0.851
RRIRVRPPRLPRPRPRPLIVPRP	-0.335
RRIRPRPPRLPRPRPRPLMYPRP	-0.318
RRIRRRPPRLPRPRPRPMKLPRP	-0.123

Sequence	shrunken log2 fold change
RRIRQRPPRLPRPRPRPGEPPRP	-0.00996
RRIRERPPRLPRPRPRPSNQPRP	-0.841
RRIRTRPPRLPRPRPRPQAGPRP	0.107
RRIRFRPPRLPRPRPRPTWIPRP	-0.222
RRIRKRPPRLPRPRPRPLEGPRP	0.162
RRIRTRPPRLPRPRPRPVDYPRP	-0.172
RRIRFRPPRLPRPRPRPPILPRP	-0.254
RRIRTRPPRLPRPRPRPTKYPRP	-0.612
RRIRKRPPRLPRPRPRPNAHPRP	0.208
RRIRGRPPRLPRPRPRPKICPRP	-0.0723
RRIRARPPRLPRPRPRPIDWPRP	0.0607
RRIRLRPPRLPRPRPRPIENPRP	0.0407
RRIRHRPPRLPRPRPRPVGQPRP	0.0139
RRIRQRPPRLPRPRPRPHEIPRP	-0.0149
RRIRARPPRLPRPRPRPNHAPRP	0.209
RRIRPRPPRLPRPRPRPSHWPRP	0.959
RRIRCRPPRLPRPRPRPEDMPRP	0.176
RRIRNRPPRLPRPRPRPYEFPRP	0.121
RRIRRRPPRLPRPRPRPQQQPRP	-0.0864
RRIRCRPPRLPRPRPRPRDRPRP	0.731
RRIRCRPPRLPRPRPRPDPQPRP	0.17
RRIRDRPPRLPRPRPRPRQIPRP	-0.233
RRIRRRPPRLPRPRPRPGPCPRP	0.0678
RRIRGRPPRLPRPRPRPVPMPRP	1.17
RRIRMRPPRLPRPRPRPFVCPRP	0.137

Sequence	shrunken log2 fold change
RRIRNRPPRLPRPRPRPDLTPRP	-0.112
RRIRRRPPRLPRPRPRPNRCPRP	0.118
RRIRSRPPRLPRPRPRPFEMPRP	-0.353
RRIRKRPPRLPRPRPRPDYAPRP	0.102
RRIRDRPPRLPRPRPRPRSSPRP	-0.0289
RRIRSRPPRLPRPRPRPVVRPRP	0.367
RRIRTRPPRLPRPRPRPECMPRP	0.378
RRIRGRPPRLPRPRPRPGNRPRP	0.333
RRIRARPPRLPRPRPRPPIWPRP	0.507
RRIRHRPPRLPRPRPRPDVTPRP	-0.0437
RRIRQRPPRLPRPRPRPLNGPRP	-0.128
RRIRGRPPRLPRPRPRPCWPPRP	0.455
RRIRNRPPRLPRPRPRPVCKPRP	-0.0239
RRIRYRPPRLPRPRPRPRHGPRP	-0.0607
RRIRTRPPRLPRPRPRPTNKPRP	-0.444
RRIRARPPRLPRPRPRPNMTPRP	0.147
RRIRKRPPRLPRPRPRPMIPPRP	0.0969
RRIRYRPPRLPRPRPRPFPPPRP	-0.809
RRIRNRPPRLPRPRPRPGNTPRP	-0.896
RRIRQRPPRLPRPRPRPSFAPRP	0.0485
RRIRKRPPRLPRPRPRPVTGPRP	-0.0771
RRIRDRPPRLPRPRPRPDWGPRP	0.161
RRIRRRPPRLPRPRPRPCWHPRP	-0.0148
RRIRGRPPRLPRPRPRPYMYPRP	-0.251
RRIRWRPPRLPRPRPRPMFKPRP	0.0191

Sequence	shrunken log2 fold change
RRIRGRPPRLPRPRPRPHVTPRP	0.00976
RRIRGRPPRLPRPRPRPFMKPRP	-0.248
RRIRGRPPRLPRPRPRPRLYPRP	0.291
RRIRMRPPRLPRPRPRPDNQPRP	0.0198
RRIRWRPPRLPRPRPRPDNLPRP	-0.188
RRIRMRPPRLPRPRPRPVMTPRP	0.148
RRIRERPPRLPRPRPRPVHYPRP	0.198
RRIRNRPPRLPRPRPRPHAQPRP	-0.835
RRIRNRPPRLPRPRPRPSILPRP	-0.151
RRIRRRPPRLPRPRPRPADPPRP	0.403
RRIRMRPPRLPRPRPRPCQSPRP	0.288
RRIRERPPRLPRPRPRPNGLPRP	-0.0319
RRIRCRPPRLPRPRPRPGGWPRP	0.656
RRIRERPPRLPRPRPRPADYPRP	-0.379
RRIRFRPPRLPRPRPRPHAMPRP	0.203
RRIRTRPPRLPRPRPRPIHLPRP	0.0312
RRIRWRPPRLPRPRPRPPNLPRP	-0.24
RRIRRRPPRLPRPRPRPLAAPRP	0.874
RRIRFRPPRLPRPRPRPFNTPRP	-0.688
RRIRWRPPRLPRPRPRPPWHPRP	0.134
RRIRNRPPRLPRPRPRPARGPRP	0.86
RRIRQRPPRLPRPRPRPCKKPRP	0.0212
RRIRNRPPRLPRPRPRPLFWPRP	0.0854
RRIRWRPPRLPRPRPRPWDVPRP	0.0249
RRIRMRPPRLPRPRPRPRPAPRP	1.51

Sequence	shrunken log2 fold change
RRIRLRPPRLPRPRPRPGAPPRP	0.672
RRIRKRPPRLPRPRPRPYIWPRP	-0.126
RRIRARPPRLPRPRPRPRNLPRP	-0.0356
RRIRERPPRLPRPRPRPIIIPRP	-0.0562
RRIRERPPRLPRPRPRPCMVPRP	-1.08
RRIRRRPPRLPRPRPRPILHPRP	-0.0819
RRIRIRPPRLPRPRPRPNSDPRP	-0.267
RRIRSRPPRLPRPRPRPCWAPRP	0.143
RRIRERPPRLPRPRPRPQCWPRP	-0.0051
RRIRSRPPRLPRPRPRPGGDPRP	0.514
RRIRCRPPRLPRPRPRPITWPRP	-0.189
RRIRHRPPRLPRPRPRPPDHPRP	0.265
RRIRVRPPRLPRPRPRPWPTPRP	0.266
RRIRQRPPRLPRPRPRPKLTPRP	-0.0707
RRIRVRPPRLPRPRPRPYTQPRP	-0.171
RRIRHRPPRLPRPRPRPCIIPRP	-0.0445
RRIRCRPPRLPRPRPRPMGVPRP	-0.152
RRIRDRPPRLPRPRPRPSSFPRP	-0.178
RRIRMRPPRLPRPRPRPWCDPRP	0.274
RRIRQRPPRLPRPRPRPVKPPRP	-0.00215
RRIRDRPPRLPRPRPRPRVPPRP	0.523
RRIRKRPPRLPRPRPRPMQTPRP	0.753
RRIRDRPPRLPRPRPRPEGMPRP	0.896
RRIRSRPPRLPRPRPRPEQIPRP	0.157
RRIRERPPRLPRPRPRPWAYPRP	-0.552

Sequence	shrunken log2 fold change
RRIRTRPPRLPRPRPRPEWRPRP	0.338
RRIRDRPPRLPRPRPRPKPNPRP	0.45
RRIRSRPPRLPRPRPRPWTTPRP	0.00749
RRIRWRPPRLPRPRPRPKFYPRP	-0.24
RRIRPRPPRLPRPRPRPPIWPRP	0.268
RRIRHRPPRLPRPRPRPWNGPRP	-0.228
RRIRLRPPRLPRPRPRPKLCPRP	0.115
RRIRQRPPRLPRPRPRPTWKPRP	0.00778
RRIRERPPRLPRPRPRPDITPRP	3.39
RRIRKRPPRLPRPRPRPKAEPRP	0.669
RRIRSRPPRLPRPRPRPVCTPRP	-0.0518
RRIRERPPRLPRPRPRPVTFPRP	-0.019
RRIRNRPPRLPRPRPRPLDFPRP	-0.386
RRIRNRPPRLPRPRPRPMQCPRP	0.0637
RRIRWRPPRLPRPRPRPERGPRP	0.683
RRIRFRPPRLPRPRPRPPFSPRP	-0.0847
RRIRARPPRLPRPRPRPMPFPRP	0.263
RRIRSRPPRLPRPRPRPMQWPRP	-0.145
RRIRCRPPRLPRPRPRPILYPRP	-0.716
RRIRHRPPRLPRPRPRPMRKPRP	0.0179
RRIRYRPPRLPRPRPRPGVKPRP	-0.188
RRIRMRPPRLPRPRPRPFFFPRP	0.365
RRIRYRPPRLPRPRPRPTKYPRP	-0.836
RRIRFRPPRLPRPRPRPYSFPRP	-0.967
RRIRIRPPRLPRPRPRPMICPRP	-0.224
